Measurements as given in the DeepSol protein solubility set.

Experiment: soluble on expression in E. coli; label from the status in PepcDB or PDB records

Sequence | soluble on expression in E. coli
SLDICSKNPCHNGGLCEEISQEVRGDVFPSYTCTCLKGYAGNHCETKCVEPLGMENGNIANSQIAASSVRVTFLGLQHWVPELARLNRAGMVNAWTPSSNDDNPWIQVNLLRRMWVTGVVTQGASRLASHEYLKAFKVAYSLNGHEFDFIHDVNKKHKEFVGNWNKNAVHVNLFETPVEAQYVRLYPTSCHTACTLRFELLGCELNGCANPLGLKNNSIPDKQITASSSYKTWGLHLFSWNPSYARLDKQGNFNAWVAGSYGNDQWLQVDLGSSKEVTGIITQGARNFGSVQFVASYKVAYSNDSANWTEYQDPRTGSSKIFPGNWDNHSHKKNLFETPILARYVRILPVAWHNRIALRLELLGC | soluble
MTELKDRLQVADKEKWNLTDIYDTIEDWESDFHKIEVLTNELHEFNGNIHDGNSLLAYLTKSEEISSIISLMFAYARLQSDLDTRDTDAQSLVDKVSQLHVKVSAAKSFFSPFLLSVDENTLHTYIEEAEGLQYYKEDLFELYRYKKHVLNKDQEEILSQMGEALSSPQHTYGMLNNADILFGEVTSNDGEKVTLTRGMYAKLIEDESREKRKEAYKAYYKPYVQLKNSIASTLSAAIKNNVTVSKLRKYPSALEKSLFGDMVPKEVYENLIETTKKNIQSLHTYNKLRKEKLNVDELRQYDLSVDLVQGVKQDIPYDNAFDIMIESLAPLGEEYIETLKSFKDKRYIDVRETPGKCSGAYNFGVYGVHPFILLNHHDDLNSLFTLTHECGHGMHTHYSHGYQPRISAHYTIFVAEVASTVNEVLLIHHLLKEAKDANVRNHLVNHFIEKFKGTFFTQIMFAEFEKITHEMAQQGKPLNAQVFSDVYENLFREYNGDSLVFDEEVKYGWARIPHFYRPFYVYKYATGFASAIQIADKLLSGDPNAQKNYLEFLKGGSSDYPLNLLKKAGVDLTTPEPIESALNRFSELVEEFSTL | not soluble
GLGKFIETCRNTQLAGSSELAAECKTRAQQFVSTKINLDDHIANIDGTLKWQPSNFSQTCYNSAIQGSVLTSTCERTNGGYNTSSIDLNSVIENVDGSLKYE | soluble
MGSDKIHHHHHHMITASIVTYHHHFKDIRKVIECILSSPVSILYIIDNSSNDRLRELAKISAKIKYIHSVNLGYGAGHNIAIRESIDIGATYHIVVNPDIYFEEGVIEKLIIYMNKYSEVGLVMPRVLYPNGELQYLCKLLPTPFDLLFRRFLPWRRYVEKKNEKYELRFTNYSREMEVPSLSGCFMFVRIAVLKKVGGFDERYFMYAEDLDLCRRIGKVSRTMYYPNVVVYHEYAKGSYKNRRLLRYHLSSVVKYFNKWGWVWDLDRKIINKRILDNLKNV | not soluble
MAELSDQEMLRYNRQIILRGFDFEGQEALKDARVLVVGLGGLGCAATQYLAGAGVGQLTLLDFDTVSVSNLQRQTLHSDATVGQPKVESARDALARINPHITITPVNARLDDDAMTSLIAGHSLVLDCTDNVSVRNQLNAGCYTAKVPLISGAAIRMEGQVTVFTYRENEPCYRCLSRLFGENALTCVEAGVMAPLIGVIGSLQAMEAIKLLAHYGQPASGKIVMYDAMTCQFREMKLMRNPGCEVCGQ | not soluble
MKKLLFFLFTLVVLASGCGKKNTFTLEGSIKGLPSDTILVFYQEPDYKLDTILLSKGKFTYTITPDTFTIFSLLLGEKQILPIYADKGESVTLNGMVGKIEVKGKGENAQLAKHIQYLSTLENNKAAVMTAVDSLIKTNPSSYSNIYLIDKYYVQDSLPDYNHIDQLIKGLSGIIKDTPYIIELQNKLSEKKELTEHRYVSNISCTDKKGKTVNWNSVKGKYVLLDFWASWNKESIATQDSLVSVQKALKKDKFVIISLSLDLDKKEWMEKIIQRDTTQWKQVCDFKGWNNSIVKQQGITRIPANILIGPDKRVITQDIRGKELIDKVRQLTEQDKEKEKAAKEAERARKRQNKK | not soluble
MKARQQKYCDKIANFWCHPTGKIIMSLAGKKIVLGVSGGIAAYKTPELVRRLRDRGADVRVAMTEAAKAFITPLSLQAVSGYPVSDSLLDPAAEAAMGHIELGKWADLVILAPATADLIARVAAGMANDLVSTICLATPAPVAVLPAMNQQMYRAAATQHNLEVLASRGLLIWGPDSGSQACGDIGPGRMLDPLTIVDMAVAHFSPVNDLKHLNIMITAGPTREPLDPVRYISNHSSGKMGFAIAAAAARRGANVTLVSGPVSLPTPPFVKRVDVMTALEMEAAVNASVQQQNIFIGCAAVADYRAATVAPEKIKKQATQGDELTIKMVKNPDIVAGVAALKDHRPYVVGFAAETNNVEEYARQKRIRKNLDLICANDVSQPTQGFNSDNNALHLFWQDGDKVLPLERKELLGQLLLDEIVTRYDEKNRR | not soluble
MGSDKIHHHHHHMADNLALRMRPRNINEVIGQQHLVGNGKIIDRMVAANMLSSMILYGPPGIGKTSIASAIAGTTKYAFRTFNATVDSKKRLQEIAEEAKFSGGLVLLLDEIHRLDKTKQDFLLPLLENGNIIMIGATTENPFFSVTPAIRSRVQIFELEPLSNEDIKKAIQLAISDKERGFPFLVTIDDEALDFIVTATNGDLRSAYNSLDLAVMSTSPNEDGSRHISLETMENSLQCSYITMDKNGDGHYDILSALQKSIRGSDVNASLHYAARLVEAGDLPSLARRLTIIAYEDIGLANPEAQIHTVTALEAAQRIGFPEARILIANIVVDLALSPKSNSAYLAMDAALADLRRSGNLPIPRHLRDGHYSGSKTLGNARDYKYPHAYPEKWVKQQYLPDKLVGHNYFEANETGKYERALGSNKERIDKLSD | not soluble
GPLGSKELKVTQPEKSVSVAAGDSTVLNCTLTSLLPVGPIKWYRGVGQSRLLIYSFTGEHFPRVTNVSDATKRNNMDFSIRISNVTPEDAGTYYCVKFQKGPSEPDTEIQSGGGTEVYVL | soluble
MPRLILASTSPWRRALLEKLTIPFECAAPDVDETPMPGEAPRQLVLRLAQAKAQSLAARFPNHLIIGSDQICVLDGEITGKPLTEEKARQQLAKASGNIVTFYTGLALYNSASGHLQTEVEPFDVHFRHLSEAEIDDYVRKEHPLHCAGSFKSEGLGIALFERLEGRDPNTLIGLPLIALCQMLRREGFNPLQQ | not soluble
ARDPKHDILFEPIQIGPKTLRNRFYQVPHAIGAGSDKPGFQSAHRSVKAEGGWAALNTEYCSINPESDDTHRLSARIWDEGDVRNLKAMTDEVHKYGALAGVELWYGGAHAPNMESRATPRGPSQYASEFETLSYCKEMDLSDIAQVQQFYVDAAKRSRDAGFDIVYVYGAHSYLPLQFLNPYYNKRTDKYGGSLENRARFWLETLEKVKHAVGSDCAIATRFGVDTVYGPGQIEAEVDGQKFVEMADSLVDMWDITIGDIAEWGEDAGPSRFYQQGHTIPWVKLVKQVSKKPVLGVGRYTDPEKMIEIVTKGYADIIGCARPSIADPFLPQKVEQGRYDDIRVCIGCNVCISRWEIGGPPMICTQNATAGEEYRRGWHPEKFRQTKNKDSVLIVGAGPSGSEAARVLMESGYTVHLTDTAEKIGGHLNQVAALPGLGEWSYHRDYRETQITKLLKKNKESQLALGQKPMTADDVLQYGADKVIIATGARWNTDGTNCLTHDPIPGADASLPDQLTPEQVMDGKKKIGKRVVILNADTYFMAPSLAEKLATAGHEVTIVSGVHLANYMHFTLEYPNMMRRLHELHVEELGDHFCSRIEPGRMEIYNIWGDGSKRTYRGPGVSPRDANTSHRWIEFDSLVLVTGRHSECTLWNELKARESEWAENDIKGIYLIGDAEAPRLIADATFTGHRVAREIEEANPQIAIPYKRETIAWGTPHMPGGNFKIEYKV | soluble
MSLPNNEKITRLQQQEKNTQQTVTVAKNKAANLAKFQKEVEATTLDFETQAALLPKEKEIPKLLKDISALGSNTGLDFISFKPLANRPKDFYAEIPISIQVRGPYHNVGSFFDQINKLERIVSVKSVKMTSPKKEDGEMLLTSNCQLVTYQFTNIELPKEGHHHHHH | soluble
MGSDKIHHHHHHMTLAEKILSQKAGRKVEPGEFLLLEPDIALANDITAPLAIKKFKEYGGKKVKYPDRVVLVPDHFTPNKDIKSAMQVKMMREFAREQGIEKFFEIGRMGIEHVLLPEEGIVKSGDLVVGADSHTCTYGALGAFATGVGSTDIAGFYLIGKVWFRVPESIKVTLRGKFKDLVTAKDLVLKLISILGVDGANYKAIEFSGPGVKEISMDGRFTISNMAIEAGGKTGLFPVDEITIAYERERGIEVEEMYPDEDAKYVREVEMDLSELEPQVAYPFLPSNAKDVSEAEKERIKIDQAVIGSCTNGRIEDLRLAAQILKGRTVSPDVRCIIIPGSQKVYKQALKEGLIDIFIDAGCAVSTPTCGPCLGGHMGVLAEGEVAISTTNRNFVGRMGHPNSKVFLASPAVAAASAIKGYIADPRKL | not soluble
MVAELAGQQDPGLGAFSCQEARRAWLDRHGNLDEAVEECVRTRRRKVQELQSLGFGPEEGSLQALFQHGGDVSRALTELQRQRLEPFRQRLWDSGPEPTPSWDGPDKQSLVRRLLAVYALPSWGRAELALSLLQETPRNYELGDVVEAVRHSQDRAFLRRLLAQECAVCGWALPHNRMQALTSCECTICPDCFRQHFTIALKEKHITDMVCPACGRPDLTDDTQLLSYFSTLDIQLRESLEPDAYALFHKKLTEGVLMRDPKFLWCAQCSFGFIYEREQLEATCPQCHQTFCVRCKRQWEEQHRGRSCEDFQNWKRMNDPEYQAQGLAMYLQENGIDCPKCKFSYALARGGCMHFHCTQCRHQFCSGCYNAFYAKNKCPEPNCRVKKSLHGHHPRDCLFYLRDWTALRLQKLLQDNNVMFNTEPPAGARAVPGGGCRVIEQKEVPNGLRDEACGKETPAGYAGLCQAHYKEYLVSLINAHSLDPATLYEVEELETATERYLHVRPQPLAGEDPPAYQARLLQKLTEEVPLGQSIPRRRK | soluble
MDNCLAAAALNGVDRRSLQRSAKLALEVLERAKRRAVDWHALERPKGCMGVLAREAPHLEKQPAAGPQRVLPGEREERPPTLSASFRTMAEFMDYTSSQCGKYYSSVPEEGGATHVYRYHRGESKLHMCLDIGNGQRKDRKKTSLGPGGSYQISEHAPEASQPAENISKDLYIEVYPGTYSVTVGSNDLTKKTHVVAVDSGQSVDLVFPVLEHHHHHH | soluble
MGSDKIHHHHHHMEQLLHYVWKHKIFPLHELQTTTGLPVEVIDTGLPNSDSGPDFFNAKLKIGGTLWVGNVEIHTASSDWFRHGHDRDIAYDSVILHIVTEIDCEIYRSNGEPVPQLRLPCPEQVKEHYDELCRADIHPPCYSILETLPKLTIHSWLTALQTERFDQKNRTITRRLQRCNQHWEDAFFITLARNFGFGLNGDAFETWANLLSFRAIDKHRDDLTQVEAFFFGQAGLLEGESADDYFSWMQKEFRYLQHKFELPPVMNPSLWRFLRLRPGNFPHVRLAQLASLYYRERSLFSRVMEAETLKDLKHIFAGHTSAYWEEHFMFGKSSPRREKSIGAGAKELIIINTVIPFLYAYGLHKADERLCERAASLLEELKAENNYVTRMWSGAGIPVQTAADSQALLQLQKEYCDKKKCLYCRFGYEYLRHK | not soluble
MMLENKSINELYSIKLIEEADTKRLIKFMNKYMNSKHEFEMSKRIFLSDQILNQECYNDINIRSSIYNFYEEYIVMEKEGKIAALIALDINRNNLSKVLNLNLIICEEGEMSRLRDMFIFATEILPEYSIVEPTKIRTYIRENGIFTEYWKNKLMEAGFSHEVTRENEVGNGVALTTMIIKMK | not soluble
